1 molecule from publication PMC8368996, “Interactions between AMOT PPxY motifs and NEDD4L WW domains function in HIV-1 release” (The Journal of Biological Chemistry, 2021) can be followed below.

The test system of this assay is full-length NEDD4L. In words: FP binding of Alexa Fluor-tagged recombinant AMOT1-300 to full-length recombinant NEDD4L. The method, then:
A labeled peptide (GGG-ALEXA488) was added to AMOT1-300 (which carried a sortase tag) by transpeptidation with sortase. Typical reactions contained 10 to 50 μM AMOT1-300, 30 to 150 μM GGG-ALEXA488 peptide and 20 μM sortase enzyme in the reaction buffer (50 mM Tris [pH 7.5], 150 mM NaCl and 10 mM CaCl2). Reactions were allowed to proceed at either room temperature or 4 °C until the reaction was complete (typically 1–4 h). AMOT1-300–ALEXA488 was then purified by ion-exchange chromatography (SP HiTrap) as described above.
Each dilution series was performed at least in triplicate. […] The mean Kd values are reported as mean ± SEM.

B1: AMOT1-300: Alexa Fluor 488-tagged recombinant AMOT construct (residues 1–300) spanning all three PPxY motifs, labeled by sortase transpeptidation (protein)
chain: MRNSEEQPSGGTTVLQRLLQEQLRYGNPSENRSLLAIHQQATGNGPPFPSGSGNPGPQSDVLSPQDHHQQLVAHAARQEPQGQEIQSENLIMEKQLSPRMQNNEELPTYEEAKVQSQYFRGQQHASVGAAFYVTGVTNQKMRTEGRPSVQRLNPGKMHQDEGLRDLKQGHVRSLSERLMQMSLATSGVKAHPPVTSAPLSPPQPNDLYKNPTSSSEFYKAQGPLPNQHSLKGMEHRGPPPEYPFKGMPPQSVVCKPQEPGHFYSEHRLNQPGRTEGQLMRYQHPPEYGAARPAQDISLPL
modifications: GGG-ALEXA488 peptide added by transpeptidation with sortase; left off: His, end not stated, state not stated | sortase tag, end not stated, kept
notes: Alexa Fluor 488-tagged recombinant AMOT construct (residues 1–300) spanning all three PPxY motifs, labeled by sortase transpeptidation
With B1, the “fold tighter binding than the isolated AMOT PPxY1-NEDD4L WW3 complex” value (AMOT1-300-full-length NEDD4L vs PPxY1-WW3) is reported as 1.5 fold. In addition, the “apparent dissociation constant, AMOT1-300 with full-length NEDD4L” value (Fig. 3C/E, FP, Alexa Fluor 488-tagged AMOT1-300, full isotherm not sampled because of limited solubility of full-length NEDD4L) was found to be 2.7 ± 0.8 µM.
